Source: article PMC11039992

B1: MAC-RBM41-WT [human] / DEAH-box RNA helicase DHX8 [human (endogenous in Flp-In T-REx 293)] (parent)
chain 1: MKRVNSCVKSDEHVLEELETEGERQLKSLLQHQLDTSVSIEECMSKKESFAPGTMYKPFGKEAAGTMTLSQFQTLHEKDQETASLRELGLNETEILIWKSHVSGEKKTKLRATPEAIQNRLQDIEERISERQRILCLPQRFAKSKQLTRREMEIEKSLFQGADRHSFLKALYYQDEPQKKNKGDPMNNLESFYQEMIMKKRLEEFQLMRGEPFASHSLVSATSVGDSGTAESPSLLQDKGKQAAQGKGPSLHVANVIDFSPEQCWTGPKKLTQPIEFVPEDEIQRNRLSEEEIRKIPMFSSYNPGEPNKVLYLKNLSPRVTERDLVSLFARFQEKKGPPIQFRMMTGRMRGQAFITFPNKEIAWQALHLVNGYKLHGKILVIEFGKNKKQRSNLQATSLISCATGSTTEISGS
chain 2: MAVAVAMAGALIGSEPGPAEELAKLEYLSLVSKVCTELDNHLGINDKDLAEFVISLAEKNTTFDTFKASLVKNGAEFTDSLISNLLRLIQTMRPPAKPSTSKDPVVKPKTEKEKLKELFPVLCQPDNPSVRTMLDEDDVKVAVDVLKELEALMPSAAGQEKQRDAEHRDRTKKKKRSRSRDRNRDRDRDRERNRDRDHKRRHRSRSRSRSRTRERNKVKSRYRSRSRSQSPPKDRKDRDKYGERNLDRWRDKHVDRPPPEEPTIGDIYNGKVTSIMQFGCFVQLEGLRKRWEGLVHISELRREGRVANVADVVSKGQRVKVKVLSFTGTKTSLSMKDVDQETGEDLNPNRRRNLVGETNEETSMRNPDRPTHLSLVSAPEVEDDSLERKRLTRISDPEKWEIKQMIAANVLSKEEFPDFDEETGILPKVDDEEDEDLEIELVEEEPPFLRGHTKQSMDMSPIKIVKNPDGSLSQAAMMQSALAKERRELKQAQREAEMDSIPMGLNKHWVDPLPDAEGRQIAANMRGIGMMPNDIPEWKKHAFGGNKASYGKKTQMSILEQRESLPIYKLKEQLVQAVHDNQILIVIGETGSGKTTQITQYLAEAGYTSRGKIGCTQPRRVAAMSVAKRVSEEFGCCLGQEVGYTIRFEDCTSPETVIKYMTDGMLLRECLIDPDLTQYAIIMLDEAHERTIHTDVLFGLLKKTVQKRQDMKLIVTSATLDAVKFSQYFYEAPIFTIPGRTYPVEILYTKEPETDYLDASLITVMQIHLTEPPGDILVFLTGQEEIDTACEILYERMKSLGPDVPELIILPVYSALPSEMQTRIFDPAPPGSRKVVIATNIAETSLTIDGIYYVVDPGFVKQKVYNSKTGIDQLVVTPISQAQAKQRAGRAGRTGPGKCYRLYTERAYRDEMLTTNVPEIQRTNLASTVLSLKAMGINDLLSFDFMDAPPMETLITAMEQLYTLGALDDEGLLTRLGRRMAEFPLEPMLCKMLIMSVHLGCSEEMLTIVSMLSVQNVFYRPKDKQALADQKKAKFHQTEGDHLTLLAVYNSWKNNKFSNPWCYENFIQARSLRRAQDIRKQMLGIMDRHKLDVVSCGKSTVRVQKAICSGFFRNAAKKDPQEGYRTLIDQQVVYIHPSSALFNRQPEWVVYHELVLTTKEYMREVTTIDPRWLVEFAPAFFKVSDPTKLSKQKKQQRLEPLYNRYEEPNAWRISRAFRRR

Variants of: B1
Assay: BioID proximity labeling (mass spectrometry spectral counts)
Conditions: with DEAH-box RNA helicase DHX8 [human (endogenous in Flp-In T-REx 293)]; MAC-tagged protein expression induced with tetracycline in the presence of biotin for 24 h; three independent replicates; parent: 23; read off a plot

response (spectral count) | Variant
19 | chain 1 Y312A
23 | chain 1 Q352A

Continued, variant first:

Variant | response (spectral count)
chain 1 Y312A F354A | 23
chain 1 F354A | 19
